Publication PMC5705213, “Immunoproteasome functions explained by divergence in cleavage specificity and regulation” (eLife, 2017)

Experiments:
Format in all cases: biochemical, human
[1] = substrate: CC(=O)N[C@@H](C)C(=O)N[C@@H](CC(N)=O)C(=O)N[C@@H](Cc1c[nH]c2ccccc12)C(=O)Nc1ccc2c(C)cc(=O)oc2c1; assay: Purified proteasome activity assay with fluorogenic substrates, SDS-activated i20S; conditions: other: i20S, Michaelis-Menten; pH 8.0
Procedure: (§1) Non-prime-side substrate specificity profiling was performed with a complete, diverse library of 160,000 fluorogenic substrates containing the general structure acetyl-P4-P3-P2-P1-(7-amino-4-carbamoylmethylcourmarin, ACC) ([Harris et al., 2000]). For each sub-library, 10 nM human i20S or c20S underwent SDS pre-activation for 1 hr at room temperature in assay buffer (20 mM Tris, pH 8.0, 0.5 mM EDTA) containing 0.03% SDS. […] Activity assays were carried out over 1 hr following two-fold sample dilution in the same 0.03% SDS-containing buffer that also contained a 250 μM final concentration of PS-SCL substrate pool. Activity was recorded in black 96-well round bottom plates (Costar, COrning, NY) using a BioTek Synergy H4 Hybrid Multi-Mode Microplate Reader set to λex = 380 nm and λem = 460 nm (gain = 63). Initial velocity in relative fluorescence units per second (RFU/s) was calculated using a linear fit of the progress curves with Gen5 software v.2.03.
(§2) Activity assays with individual fluorogenic substrates were carried out as described above for the PS-SCL assays using final concentrations of 5 nM SDS-activated i20S or c20S and 10 μM substrate except where noted below. The commercial substrates Suc-LLVY-AMC, Ac-WLA-AMC (Boston Biochem, S-330), and Ac-ANW-AMC (Boston Biochem, S-320) were used as supplied. To convert cleaved substrate RFU to free AMC or ACC dye concentration, calibration curves were prepared through total enzymatic hydrolysis of ACC- or AMC-containing peptides that had been quantified through amino acid analysis (Alphalyse, Inc.). Substrate selectivity of PA28α- and SDS-activated 20S proteasomes was compared following 1 hr pre-incubation at room temperature either in the presence of 0.03% SDS or with 12 molar equivalents of PA28α activator in the absence of SDS. For substrate selectivity assays with mixed, purified proteasomes, i20S and c20S underwent individual SDS pre-activation prior to assaying with 5 nM final concentration of pooled 20S. Proteasome ratio assays were performed with 10 μM EWFW-ACC, 30 μM iso-VQA-ACC, and 30 μM Suc-LLVY-AMC. All activity measurements were recorded on the BioTek plate reader described above using λex = 380 nm and λem = 460 nm (gain = 63) for ACC substrates and Suc-LLVY-AMC; 345 nm and λem = 445 nm (gain = 63) for Ac-WLA-AMC and Ac-ANW-AMC; and λex = 328 nm and λem = 393 nm (gain = 75) for the GEWHWPS IQ substrate. Michaelis-Menten calculations were performed using a non-linear fit in Prism v.6.0.

[2] = substrate: Cc1cc(=O)oc2cc(NC(=O)[C@H](Cc3ccc(O)cc3)NC(=O)[C@@H](NC(=O)[C@H](CC(C)C)NC(=O)[C@H](CC(C)C)NC(=O)CCC(=O)O)C(C)C)ccc12; assay: as above; conditions: other: Michaelis-Menten plot, commercial substrate; pH 8.0
Procedure: as §1, §2

[3] = substrate: Cc1cc(C(=O)N[C@H](C(=O)N[C@@H](CCC(N)=O)C(=O)N[C@@H](C)C(=O)Nc2ccc3c(CC(N)=O)cc(=O)oc3c2)C(C)C)no1; assay: as above; conditions: other: i20S, Michaelis-Menten; pH 8.0
Procedure: as §1, §2

[4] = substrate: NC(=O)Cc1cc(=O)oc2cc(NC(=O)[C@H](Cc3c[nH]c4ccccc34)NC(=O)[C@H](Cc3c[nH]cn3)NC(=O)[C@H](Cc3c[nH]c4ccccc34)NC(=O)[C@@H](N)CCC(=O)O)ccc12; assay: as above; conditions: other: i20S, Michaelis-Menten; pH 8.0
Procedure: as §1, §2

[5] = substrate: NC(=O)Cc1cc(=O)oc2cc(NC(=O)[C@H](Cc3c[nH]c4ccccc34)NC(=O)[C@H](Cc3ccccc3)NC(=O)[C@H](Cc3c[nH]c4ccccc34)NC(=O)[C@@H](N)CCC(=O)O)ccc12; assay: as above; conditions: other: i20S, Michaelis-Menten; pH 8.0
Procedure: as §1, §2

[6] = substrate: CC(=O)N[C@@H](C)C(=O)N[C@@H](CC(N)=O)C(=O)N[C@@H](Cc1c[nH]c2ccccc12)C(=O)Nc1ccc2c(C)cc(=O)oc2c1; assay: Purified proteasome activity assay with fluorogenic substrates, SDS-activated c20S; conditions: other: c20S, Michaelis-Menten; pH 8.0
Procedure: as §1, §2

[7] = substrate: Cc1cc(=O)oc2cc(NC(=O)[C@H](Cc3ccc(O)cc3)NC(=O)[C@@H](NC(=O)[C@H](CC(C)C)NC(=O)[C@H](CC(C)C)NC(=O)CCC(=O)O)C(C)C)ccc12; assay: as above; conditions: other: Michaelis-Menten plot, commercial substrate; pH 8.0
Procedure: as §1, §2

[8] = substrate: Cc1cc(C(=O)N[C@H](C(=O)N[C@@H](CCC(N)=O)C(=O)N[C@@H](C)C(=O)Nc2ccc3c(CC(N)=O)cc(=O)oc3c2)C(C)C)no1; assay: as above; conditions: other: c20S, Michaelis-Menten; pH 8.0
Procedure: as §1, §2

[9] = substrate: NC(=O)Cc1cc(=O)oc2cc(NC(=O)[C@H](Cc3c[nH]c4ccccc34)NC(=O)[C@H](Cc3c[nH]cn3)NC(=O)[C@H](Cc3c[nH]c4ccccc34)NC(=O)[C@@H](N)CCC(=O)O)ccc12; assay: as above; conditions: other: c20S, Michaelis-Menten; pH 8.0
Procedure: as §1, §2

[10] = substrate: NC(=O)Cc1cc(=O)oc2cc(NC(=O)[C@H](Cc3c[nH]c4ccccc34)NC(=O)[C@H](Cc3ccccc3)NC(=O)[C@H](Cc3c[nH]c4ccccc34)NC(=O)[C@@H](N)CCC(=O)O)ccc12; assay: as above; conditions: other: c20S, Michaelis-Menten; pH 8.0
Procedure: as §1, §2

B1: human immunoproteasome core particle (i20S) (Homo sapiens) (protein)
chain 1: TTTLAFKFQHGVIAAVDSRASAGSYISALRVNKVIEINPYLLGTMSGCAADCQYWERLLAKECRLYYLRNGERISVSAASKLLSNMMCQYRGMGLSMGSMICGWDKKGPGLYYVDEHGTRLSGNMFSTGSGNTYAYGVMDSGYRPNLSPEEAYDLGRRAIAYATHRDSYSGGVVNMYHMKEDGWVKVESTDVSDLLHQYREANQ
chain 2: RFSPYVFNGGTILAIAGEDFAIVASDTRLSEGFSIHTRDSPKCYKLTDKTVIGCSGFHGDCLTLTKIIEARLKMYKHSNNKAMTTGAIAAMLSTILYSRRFFPYYVYNIIGGLDEEGKGAVYSFDPVGSYQRDSFKAGGSASAMLQPLLDNQVGFKNMQNVEHVPLSLDRAMRLVKDVFISAAERDVYTGDALRICIVTKEGIREETVSLRKD
notes: purchased Boston Biochem E-370
Km [1]: 20 µM
kcat [1]: 1.2 s⁻¹
kcat/Km [1]: 58000 M⁻¹ s⁻¹
Km [2]: 98.6 µM
Km [3]: 43 µM
kcat [3]: 0.65 s⁻¹
kcat/Km [3]: 15000 M⁻¹ s⁻¹
Km [4]: 52 µM
kcat [4]: 6.8 s⁻¹
kcat/Km [4]: 130000 M⁻¹ s⁻¹
Km [5]: 7.0 µM
kcat [5]: 4.8 s⁻¹
kcat/Km [5]: 690000 M⁻¹ s⁻¹

B2: constitutive proteasome core particle (c20S) (Homo sapiens) (protein)
chain 1: TTTLAFKFRHGVIVAADSRATAGAYIASQTVKKVIEINPYLLGTMAGGAADCSFWERLLARQCRIYELRNKERISVAAASKLLANMVYQYKGMGLSMGTMICGWDKRGPGLYYVDSEGNRISGATFSVGSGSVYAYGVMDRGYSYDLEVEQAYDLARRAIYQATYRDAYSGGAVNLYHVREDGWIRVSSDNVADLHEKYSGSTP
chain 2: B1 chain 2
notes: purchased Boston Biochem E-360
Km [6]: 9.8 µM
kcat [6]: 0.1 s⁻¹
kcat/Km [6]: 10000 M⁻¹ s⁻¹
Km [7]: 65.7 µM
Km [8]: 51 µM
kcat [8]: 2.3 s⁻¹
kcat/Km [8]: 45000 M⁻¹ s⁻¹
Km [9]: 73 µM
kcat [9]: 1.1 s⁻¹
kcat/Km [9]: 15000 M⁻¹ s⁻¹
Km [10]: 1.8 µM
kcat [10]: 0.31 s⁻¹
kcat/Km [10]: 170000 M⁻¹ s⁻¹
